# Source: the supplement of paper PMC6757056
# ± gives the standard deviation of the averaged measurements.
# B1: library; a variant is named by its letters at N, in order (parent)
# chain: GCUGUCACCGGUGCUUGGUACGUUAUAUUCAGCCGGUCUGAUGAGUCUNNNNNNAGACGAAACAGC
# Key:
# (6R,S)-folinic acid [1] = variants of: B1; experiment: normalized RNA/DNA level without ligand (relative to sTRSVctl = 100) (log10 (% of sTRSVctl)); HEK293T overexpressing SLC46A1; higher = less ribozyme self-cleavage, higher mRNA level; details: without (6R,S)-folinic acid; ligand present: no
# In short: (§1)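 Total RNA, extracted with EDTA 72 h after HEK293T cells were transfected with 4 µg per 6-well well of reporter-linked ribozyme switch library plasmids, was reverse-transcribed, amplified, barcoded and sequenced. Ligand, if used, was added 1 h before transfection. RNA level was derived from RNA reads divided by DNA reads and normalized to a spiked-in non-cleaving sequence or to the top sequences. This was multiplied by 100 and log10-transformed, with the top set of 25 sequences and a ≥100 DNA read minimum.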
# (6R,S)-folinic acid [2] = variants of: B1; experiment: normalized RNA/DNA level with ligand (relative to sTRSVctl = 100) (log10 (% of sTRSVctl)); HEK293T overexpressing SLC46A1; ligand concentration (+) RNA-Seq: 6 mM; higher = less ribozyme self-cleavage, higher mRNA level; details: with (6R,S)-folinic acid; ligand present: yes
# In short: as §1
Variant,"normalized RNA/DNA level without ligand (log10) ((6R,S)-folinic acid [1])","normalized RNA/DNA level with ligand (log10) ((6R,S)-folinic acid [2])"
GCUGUCACCGGUGCUUGGUACGUUAUAUUCAGCCGGUCUGAUGAGUCUCUAACGAGACGAAACAGC [CUAACG],2.02 ± 0.018,1.99 ± 0.053
GCUGUCACCGGUGCUUGGUACGUUAUAUUCAGCCGGUCUGAUGAGUCUCUAACAAGACGAAACAGC [CUAACA],2.026 ± 0.012,2.03 ± 0.043
GCUGUCACCGGUGCUUGGUACGUUAUAUUCAGCCGGUCUGAUGAGUCUCUAACUAGACGAAACAGC [CUAACU],2.007 ± 0.0098,2 ± 0.035
GCUGUCACCGGUGCUUGGUACGUUAUAUUCAGCCGGUCUGAUGAGUCUCUAACCAGACGAAACAGC [CUAACC],2.007 ± 0.0068,1.98 ± 0.073
GCUGUCACCGGUGCUUGGUACGUUAUAUUCAGCCGGUCUGAUGAGUCUGUAACUAGACGAAACAGC [GUAACU],2.03 ± 0.016,2.03 ± 0.036
GCUGUCACCGGUGCUUGGUACGUUAUAUUCAGCCGGUCUGAUGAGUCUGUAACGAGACGAAACAGC [GUAACG],1.997 ± 0.0059,2 ± 0.039
GCUGUCACCGGUGCUUGGUACGUUAUAUUCAGCCGGUCUGAUGAGUCUGUAACAAGACGAAACAGC [GUAACA],2.016 ± 0.0052,1.98 ± 0.042
GCUGUCACCGGUGCUUGGUACGUUAUAUUCAGCCGGUCUGAUGAGUCUCUAAACAGACGAAACAGC [CUAAAC],1.983 ± 0.006,1.992 ± 0.018
GCUGUCACCGGUGCUUGGUACGUUAUAUUCAGCCGGUCUGAUGAGUCUCUAAAUAGACGAAACAGC [CUAAAU],1.977 ± 0.0084,1.99 ± 0.034
GCUGUCACCGGUGCUUGGUACGUUAUAUUCAGCCGGUCUGAUGAGUCUUUAACUAGACGAAACAGC [UUAACU],2.041 ± 0.0026,2.018 ± 0.0049
GCUGUCACCGGUGCUUGGUACGUUAUAUUCAGCCGGUCUGAUGAGUCUUUAACCAGACGAAACAGC [UUAACC],2.016 ± 0.0049,2 ± 0.025
GCUGUCACCGGUGCUUGGUACGUUAUAUUCAGCCGGUCUGAUGAGUCUUUAACGAGACGAAACAGC [UUAACG],1.934 ± 0.018,1.984 ± 0.019
GCUGUCACCGGUGCUUGGUACGUUAUAUUCAGCCGGUCUGAUGAGUCUUUAACAAGACGAAACAGC [UUAACA],1.998 ± 0.0047,1.971 ± 0.01
GCUGUCACCGGUGCUUGGUACGUUAUAUUCAGCCGGUCUGAUGAGUCUCUAAGAAGACGAAACAGC [CUAAGA],2.017 ± 0.0036,2 ± 0.04
GCUGUCACCGGUGCUUGGUACGUUAUAUUCAGCCGGUCUGAUGAGUCUCUAAGGAGACGAAACAGC [CUAAGG],1.96 ± 0.0065,2.002 ± 0.014
GCUGUCACCGGUGCUUGGUACGUUAUAUUCAGCCGGUCUGAUGAGUCUCUAAGCAGACGAAACAGC [CUAAGC],2.02 ± 0.026,2.024 ± 0.018
GCUGUCACCGGUGCUUGGUACGUUAUAUUCAGCCGGUCUGAUGAGUCUUUAAAUAGACGAAACAGC [UUAAAU],1.974 ± 0.0099,2.01 ± 0.024
GCUGUCACCGGUGCUUGGUACGUUAUAUUCAGCCGGUCUGAUGAGUCUUUAAGCAGACGAAACAGC [UUAAGC],2.022 ± 0.0089,2.027 ± 0.016
GCUGUCACCGGUGCUUGGUACGUUAUAUUCAGCCGGUCUGAUGAGUCUAGUUGGAGACGAAACAGC [AGUUGG],1.87 ± 0.022,1.994 ± 0.015
GCUGUCACCGGUGCUUGGUACGUUAUAUUCAGCCGGUCUGAUGAGUCUUGUUUAAGACGAAACAGC [UGUUUA],1.978 ± 0.0041,2.055 ± 0.0056
GCUGUCACCGGUGCUUGGUACGUUAUAUUCAGCCGGUCUGAUGAGUCUUGUUUCAGACGAAACAGC [UGUUUC],2.063 ± 0.0072,2.04 ± 0.027

Variant,"normalized RNA/DNA level without ligand (log10) ((6R,S)-folinic acid [1])","normalized RNA/DNA level with ligand (log10) ((6R,S)-folinic acid [2])"
GCUGUCACCGGUGCUUGGUACGUUAUAUUCAGCCGGUCUGAUGAGUCUAGUUUAAGACGAAACAGC [AGUUUA],1.9996 ± 0.00042,2.03 ± 0.037
GCUGUCACCGGUGCUUGGUACGUUAUAUUCAGCCGGUCUGAUGAGUCUAGUUUUAGACGAAACAGC [AGUUUU],2.01 ± 0.027,1.98 ± 0.02
GCUGUCACCGGUGCUUGGUACGUUAUAUUCAGCCGGUCUGAUGAGUCUAGUUUCAGACGAAACAGC [AGUUUC],2.02 ± 0.024,2 ± 0.025
GCUGUCACCGGUGCUUGGUACGUUAUAUUCAGCCGGUCUGAUGAGUCUAGUUUGAGACGAAACAGC [AGUUUG],1.958 ± 0.0094,2.023 ± 0.017
GCUGUCACCGGUGCUUGGUACGUUAUAUUCAGCCGGUCUGAUGAGUCUGUAAGAAGACGAAACAGC [GUAAGA],2.005 ± 0.0094,1.99 ± 0.02
GCUGUCACCGGUGCUUGGUACGUUAUAUUCAGCCGGUCUGAUGAGUCUGUAAGUAGACGAAACAGC [GUAAGU],1.939 ± 0.0089,2.02 ± 0.06
GCUGUCACCGGUGCUUGGUACGUUAUAUUCAGCCGGUCUGAUGAGUCUGGUUUAAGACGAAACAGC [GGUUUA],2.009 ± 0.018,1.98 ± 0.03
GCUGUCACCGGUGCUUGGUACGUUAUAUUCAGCCGGUCUGAUGAGUCUGGUUUUAGACGAAACAGC [GGUUUU],2 ± 0.021,1.99 ± 0.033
GCUGUCACCGGUGCUUGGUACGUUAUAUUCAGCCGGUCUGAUGAGUCUGGUUUCAGACGAAACAGC [GGUUUC],2.021 ± 0.011,1.9966 ± 0.0012
GCUGUCACCGGUGCUUGGUACGUUAUAUUCAGCCGGUCUGAUGAGUCUCGUUGUAGACGAAACAGC [CGUUGU],2.004 ± 0.0073,2 ± 0.047
GCUGUCACCGGUGCUUGGUACGUUAUAUUCAGCCGGUCUGAUGAGUCUUGUUGUAGACGAAACAGC [UGUUGU],1.9049 ± 9.7e-05,2 ± 0.027
GCUGUCACCGGUGCUUGGUACGUUAUAUUCAGCCGGUCUGAUGAGUCUGGUUGGAGACGAAACAGC [GGUUGG],2.042 ± 0.016,2.03 ± 0.031
GCUGUCACCGGUGCUUGGUACGUUAUAUUCAGCCGGUCUGAUGAGUCUGGUUGUAGACGAAACAGC [GGUUGU],2.023 ± 0.0028,2.04 ± 0.051
GCUGUCACCGGUGCUUGGUACGUUAUAUUCAGCCGGUCUGAUGAGUCUAUAAGAAGACGAAACAGC [AUAAGA],1.971 ± 0.0094,2.01 ± 0.034
GCUGUCACCGGUGCUUGGUACGUUAUAUUCAGCCGGUCUGAUGAGUCUAUAACGAGACGAAACAGC [AUAACG],1.9455 ± 0.0011,2.02 ± 0.033
GCUGUCACCGGUGCUUGGUACGUUAUAUUCAGCCGGUCUGAUGAGUCUGUAAAGAGACGAAACAGC [GUAAAG],1.94 ± 0.015,2 ± 0.027
GCUGUCACCGGUGCUUGGUACGUUAUAUUCAGCCGGUCUGAUGAGUCUCGUUUCAGACGAAACAGC [CGUUUC],2.06 ± 0.047,2.06 ± 0.06
GCUGUCACCGGUGCUUGGUACGUUAUAUUCAGCCGGUCUGAUGAGUCUCGUUUAAGACGAAACAGC [CGUUUA],1.99 ± 0.03,2.01 ± 0.034
GCUGUCACCGGUGCUUGGUACGUUAUAUUCAGCCGGUCUGAUGAGUCUCGUUUUAGACGAAACAGC [CGUUUU],2.032 ± 0.0078,2.037 ± 0.0095
GCUGUCACCGGUGCUUGGUACGUUAUAUUCAGCCGGUCUGAUGAGUCUCGUUUGAGACGAAACAGC [CGUUUG],2 ± 0.029,1.986 ± 0.0034
